Measurements taken from patent US20070048219A1 (Genentech, published 2007).
Changes are numbered by the printed parent chain. Numbers in names are those of the source. Where “and” joins values, the source holds several entries; their conditions need not be identical. Equal entries are not always repeated.

What was measured:
[1] = molecular target: T1, recombinant human IL-8, (ser-IL-8)72 (human, UniProt P10145 28-99, 125I label on tyrosine in the tracer form; the letters do not carry it); assay: competitive RIP with unlabeled IL-8, Scatchard analysis
T1 construct: also called human wild type IL-8; HuIL-8
T1 sequence: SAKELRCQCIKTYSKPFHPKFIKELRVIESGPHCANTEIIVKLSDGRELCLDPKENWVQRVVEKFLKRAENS

[2] = molecular target: T1, recombinant human IL-8, (ser-IL-8)72; assay: KinExA equilibrium constant; column head Kd
Description: (§1) The beads were resuspended in assay buffer (0.1% bovine serum albumin in PBS) to a final volume of 30 ml.
(§2) The equilibrium constant (Kd) was calculated using the software provided by Sapidyne Instruments Inc.

[3] = molecular target: T1, recombinant human IL-8, (ser-IL-8)72; assay: competition: inhibition of 125I-IL-8 binding to human neutrophils
[4] = molecular target: T1, recombinant human IL-8, (ser-IL-8)72; assay: competition binding: the antibody is varied (Cold Ligand, nM) and blocks 125I-IL-8 binding to IL-8 receptors on human neutrophils
Description: The periplasmic fraction was collected and passed over a Hi-Trap Protein-G column (Pharmacia, Piscataway, N.J.) followed by a desalting and concentration step. The protein was analyzed by SDS-PAGE, mass spectrometry and amino acid analysis.

C5a = molecular target: T2, C5a (UniProt P01031 678-751); assay: ELISA, cytokines coated onto plates
T2 sequence (looked up): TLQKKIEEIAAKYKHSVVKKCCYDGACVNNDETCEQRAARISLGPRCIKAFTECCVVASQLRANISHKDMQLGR

β-TG = molecular target: T3, β-TG (UniProt P02775 48-128); assay: ELISA, cytokines coated onto plates
T3 construct: also called b-TG
T3 sequence (looked up): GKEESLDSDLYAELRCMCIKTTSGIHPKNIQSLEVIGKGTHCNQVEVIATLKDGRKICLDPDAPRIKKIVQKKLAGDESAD

TNF = TNF (UniProt P01375 77-233, limits assumed); assay: ELISA, cytokines coated onto plates
Chain of TNF (P01375 77-233 limits assumed): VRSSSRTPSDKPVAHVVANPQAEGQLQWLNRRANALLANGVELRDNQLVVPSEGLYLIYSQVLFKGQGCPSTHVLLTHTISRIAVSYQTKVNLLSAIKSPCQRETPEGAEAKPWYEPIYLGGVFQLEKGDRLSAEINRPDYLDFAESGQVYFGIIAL

MGSA = molecular target: T4, MGSA (UniProt P09341 35-107); assay: ELISA, cytokines coated onto plates
T4 sequence (looked up): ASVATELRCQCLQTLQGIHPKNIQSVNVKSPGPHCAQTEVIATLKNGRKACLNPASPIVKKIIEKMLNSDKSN

PF4 = molecular target: T5, PF4 (UniProt P02776 32-101); assay: ELISA, cytokines coated onto plates
T5 construct: also called platelet factor 4
T5 sequence (looked up): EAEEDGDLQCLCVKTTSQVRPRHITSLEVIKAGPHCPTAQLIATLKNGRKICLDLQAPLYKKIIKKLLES

[5] = molecular target: T1, recombinant human IL-8, (ser-IL-8)72; assay: competition binding: the Fab is varied (Cold Ligand, nM) and blocks 125I-IL-8 binding to IL-8 receptors on human neutrophils
Excerpt: The displacement curves from a representative binding experiment performed in duplicate is depicted in FIG. 38.

[6] = molecular target: T1, recombinant human IL-8, (ser-IL-8)72; assay: competition binding: the Fab inhibits binding of 125I-IL-8 to human neutrophils; Bound/Total against antibody competitor (nM)
[7] = molecular target: T1, recombinant human IL-8, (ser-IL-8)72; assay: competition: inhibition of IL-8 binding to human neutrophils (experiment of FIG. 54B); Fab control of FIG. 54B
[8] = molecular target: T1, recombinant human IL-8, (ser-IL-8)72; assay: KinExA, IL-8-coated beads, solution equilibrium
Description: as §1, §2

human monomeric IL-8 = human monomeric IL-8 (human); assay: cell-based or functional assay
rabbit IL-8 = molecular target: T6, rabbit IL-8 (rabbit, UniProt P19874 23-101, limits assumed); assay: cell-based or functional assay
T6 sequence (looked up): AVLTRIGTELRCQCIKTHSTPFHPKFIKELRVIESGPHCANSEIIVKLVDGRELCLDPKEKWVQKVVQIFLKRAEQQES

[9] = molecular target: T1, recombinant human IL-8, (ser-IL-8)72; assay: cell-based or functional assay
[10] = molecular target: T1, recombinant human IL-8, (ser-IL-8)72; assay: competition binding: the Fab inhibits binding of 125I-IL-8 to human neutrophils; Bound/Total against antibody competitor (nM); remark: listed apart in the source
[11] = molecular target: T1, recombinant human IL-8, (ser-IL-8)72; assay: competition phage ELISA on plate-bound K64C IL-8
Description: The first step of the assay requires that the concentrations of the phage carrying the wild type and mutated antibodies be normalized, allowing a comparison of the relative affinities of each antibody. […] The plates were washed once more and stored covered at 4° C. with 200 ul of PBS/well. […] The phage were resuspended in 500 ul […] Tris-HCl pH 7.5, 1 mM EDTA and […] NaCl and held at 4° C. for no longer than 3 hours. […] The phage were next serially diluted in 3 fold steps down the plate from well A through H. The plates were incubated for I hour at 25° C. followed by nine quick washes with PBS containing 0.05% Tween-20 (PBST).

[12] = molecular target: T1, recombinant human IL-8, (ser-IL-8)72; assay: competition: inhibition of iodinated IL-8 binding to human neutrophils

B1: anti-IL-8 monoclonal antibody 5.12.14 (antibody, mouse IgG2a, V domains shown)
VH: EVQLVESGGGLVPPGGSLKLSCAASGFIFSSYGMSWVRQTPGKSLELVATINNNGDSTYYPDSVKGRFTISRDNAKNTLYLQMSSLKSEDTAMFYCARALISSATWFGYWGQGTLVTVSA
VL: DIVMTQSQKFMSTSVGDRVSVTCKASQNVGTNVAWYQQKPGQSPKALIYSSSYRYSGVPDRFTGSGSGTDFTLTISHVQSEDLADYFCQQYNIYPLTFGPGTKLELK
notes: murine IgG2a from hybridoma ATCC HB 11553
- Kd [1]: 0.3 nM

B2: murine anti-rabbit IL-8 monoclonal antibody 6G4.2.5 (antibody, mouse IgG2a, V domains shown)
VH: EIQLQQSGPELMKPGASVKISCKASGYSFSSHYMHWVKQSHGKSLEWIGYIDPSNGETTYNQKFKGKATLTVDTSSSTANVHLSSLTSDDSAVYFCARGDYRYNGDWFFDVWGAGTTVTVSS
VL: DIVMTQTPLSLPVSLGDQASISCRSSQSLVHGIGNTYLHWYLQKPGQSPKLLIYKVSNRFSGVPDRFSGSGSGTDFTLRISRVEAEDLGLYFCSQSTHVPLTFGAGTKLELK
notes: full length murine IgG2a from hybridoma ATCC HB 11722; also called 6G4 murine mAb; intact murine 6G4.2.5 antibody
- Kd [2]: 0.35 nM
- IC50 [3]: 5 nM
- IC50 (read off the curve) [4]: ~7 nM
- binding result (C5a): no binding
- binding result (β-TG): no binding
- binding result (TNF): no binding
- binding result (MGSA): no binding
- binding result (PF4): no binding

B3: 6G4V11N35A Fab (Fab, V domains shown)
VH: EVQLVQSGGGLVQPGGSLRLSCAASGYSFSSHYMHWVRQAPGKGLEWVGYIDPSNGETTYNQKFKGRFTLSRDNSKNTAYLQMNSLRAEDTAVYYCARGDYRYNGDWFFDVWGQGTLVTVSS
VL: DIQMTQSPSSLSASVGDRVTITCRSSQSLVHGIGATYLHWYQQKPGKAPKLLIYKVSNRFSGVPSRFSGSGSGTDFTLTISSLQPEDFATYYCSQSTHVPLTFGQGTKVEIKR
notes: also called 6G4.2.5V11N35A Fab; Fab control
- IC50 (read off the curve) [5]: 1 to 2 nM
- IC50 [6]: 0.294 nM
- IC50 [7]: 0.802 nM
- Kd [8]: ~0.114 nM
- average IC50, inhibition of IL-8 mediated neutrophil chemotaxis (human monomeric IL-8): 1 nM
- average IC50, inhibition of IL-8 mediated neutrophil chemotaxis (rabbit IL-8): 5 nM
- IC50, blocking IL-8 mediated chemotaxis [9]: 0.8 nM
- average IC50, inhibition of human IL-8 mediated neutrophil chemotaxis [9]: 2.7 nM
- IC50 [10]: 0.264 nM and 0.468 nM

B4: h6G4V11 Y37A (CDR-L1), phage-displayed (Fab, V domains shown)
VH: B3 VH
VL: B3 VL with A35N, Y37A
notes: alanine-scan mutant of m36
- binding result [11]: no binding

B5: humanized 6G425 F(ab)-6 (Fab, V domains shown)
VH: B3 VH with Q6E
VL: B3 VL with A35N
notes: also called version 8
- IC50 [12]: 34.6 nM
